Data as given in patent US7985736B2, “High throughput screen utilizing newly discovered intramolecular neuronal calcium channel interactions to discover new analgesics” (The John Hopkins University, priority 2004, dated 2011).
Ends that are not written are not given here.

Tests used:
[1] = molecular target: T1, N-type (α1B) Ca2+ channels (Homo sapiens, UniProt Q00975); experiment: Whole-cell G/Q analysis and prepulse facilitation of recombinant N-type channels coexpressed with peptide in HEK293 cells; assay type: cell-based; settings: for Effect on G/Q slope (Gmax-Qmax relation), with Gβγ: peptide coexpressed with channels and Gβγ, Gmax after 100 mV prepulse
T1 construct: transferred by EcoRI and Bgl II sites into the full-length α1B construct; expressed in transfected cells; host or cells: HEK293
T1 sequence (Q00975 whole entry, other chains not shown): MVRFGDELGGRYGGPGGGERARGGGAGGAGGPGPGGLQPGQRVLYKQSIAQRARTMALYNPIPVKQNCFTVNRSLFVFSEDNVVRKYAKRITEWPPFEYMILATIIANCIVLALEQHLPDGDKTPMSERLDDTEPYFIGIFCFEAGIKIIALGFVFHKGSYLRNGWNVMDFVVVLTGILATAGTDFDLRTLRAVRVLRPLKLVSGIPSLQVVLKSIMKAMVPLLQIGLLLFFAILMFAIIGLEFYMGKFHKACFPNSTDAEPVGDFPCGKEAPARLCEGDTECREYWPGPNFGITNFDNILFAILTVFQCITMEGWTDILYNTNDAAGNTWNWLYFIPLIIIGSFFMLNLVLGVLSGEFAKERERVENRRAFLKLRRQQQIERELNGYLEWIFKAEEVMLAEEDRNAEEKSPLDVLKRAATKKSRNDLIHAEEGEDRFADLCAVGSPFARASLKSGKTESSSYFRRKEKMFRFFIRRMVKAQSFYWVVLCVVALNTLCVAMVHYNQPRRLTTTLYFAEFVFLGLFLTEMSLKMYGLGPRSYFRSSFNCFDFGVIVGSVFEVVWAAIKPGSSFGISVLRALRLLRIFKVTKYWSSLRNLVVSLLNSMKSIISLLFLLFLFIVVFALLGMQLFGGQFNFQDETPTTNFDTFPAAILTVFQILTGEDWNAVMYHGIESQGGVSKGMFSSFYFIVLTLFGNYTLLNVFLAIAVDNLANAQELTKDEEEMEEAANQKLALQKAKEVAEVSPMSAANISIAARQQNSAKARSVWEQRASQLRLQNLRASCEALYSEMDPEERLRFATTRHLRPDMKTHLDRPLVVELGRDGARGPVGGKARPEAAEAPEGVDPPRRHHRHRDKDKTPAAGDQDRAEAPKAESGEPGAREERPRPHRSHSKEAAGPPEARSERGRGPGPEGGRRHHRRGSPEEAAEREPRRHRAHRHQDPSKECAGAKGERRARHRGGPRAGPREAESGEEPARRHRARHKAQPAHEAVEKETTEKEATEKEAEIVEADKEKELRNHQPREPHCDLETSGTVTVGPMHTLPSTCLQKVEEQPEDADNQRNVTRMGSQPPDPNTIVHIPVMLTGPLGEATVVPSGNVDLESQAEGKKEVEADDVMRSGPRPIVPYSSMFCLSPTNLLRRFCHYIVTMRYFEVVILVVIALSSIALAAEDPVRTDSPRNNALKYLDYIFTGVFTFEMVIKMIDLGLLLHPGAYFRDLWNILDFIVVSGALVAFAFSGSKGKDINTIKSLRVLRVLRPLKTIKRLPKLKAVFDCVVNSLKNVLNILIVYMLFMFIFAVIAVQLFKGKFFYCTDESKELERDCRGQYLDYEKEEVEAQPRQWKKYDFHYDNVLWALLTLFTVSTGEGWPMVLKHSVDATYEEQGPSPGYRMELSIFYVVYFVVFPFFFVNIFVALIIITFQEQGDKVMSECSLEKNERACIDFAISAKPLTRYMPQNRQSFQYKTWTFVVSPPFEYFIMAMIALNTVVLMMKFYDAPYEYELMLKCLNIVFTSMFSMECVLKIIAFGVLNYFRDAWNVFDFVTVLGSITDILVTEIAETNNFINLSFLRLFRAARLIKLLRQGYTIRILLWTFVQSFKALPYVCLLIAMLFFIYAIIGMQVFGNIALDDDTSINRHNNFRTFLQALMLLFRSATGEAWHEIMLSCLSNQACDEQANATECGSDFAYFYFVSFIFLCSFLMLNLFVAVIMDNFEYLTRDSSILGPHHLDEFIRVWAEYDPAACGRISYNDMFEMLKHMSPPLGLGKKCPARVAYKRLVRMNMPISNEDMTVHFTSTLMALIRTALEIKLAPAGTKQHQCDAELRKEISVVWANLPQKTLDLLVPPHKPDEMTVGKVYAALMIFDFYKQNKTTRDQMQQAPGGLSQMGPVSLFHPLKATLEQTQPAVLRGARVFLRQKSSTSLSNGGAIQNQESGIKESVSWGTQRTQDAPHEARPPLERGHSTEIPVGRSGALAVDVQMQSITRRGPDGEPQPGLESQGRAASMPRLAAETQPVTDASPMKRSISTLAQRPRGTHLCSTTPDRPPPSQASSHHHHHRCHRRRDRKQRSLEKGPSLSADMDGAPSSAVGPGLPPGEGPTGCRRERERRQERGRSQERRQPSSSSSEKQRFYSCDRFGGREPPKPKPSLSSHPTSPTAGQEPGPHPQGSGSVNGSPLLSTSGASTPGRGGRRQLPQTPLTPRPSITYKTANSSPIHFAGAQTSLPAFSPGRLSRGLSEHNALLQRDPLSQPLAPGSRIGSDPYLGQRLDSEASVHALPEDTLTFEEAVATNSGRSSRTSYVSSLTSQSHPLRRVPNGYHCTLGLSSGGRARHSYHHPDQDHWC
T1 sequence (P54290 25-944 partner limits assumed, other chains not shown): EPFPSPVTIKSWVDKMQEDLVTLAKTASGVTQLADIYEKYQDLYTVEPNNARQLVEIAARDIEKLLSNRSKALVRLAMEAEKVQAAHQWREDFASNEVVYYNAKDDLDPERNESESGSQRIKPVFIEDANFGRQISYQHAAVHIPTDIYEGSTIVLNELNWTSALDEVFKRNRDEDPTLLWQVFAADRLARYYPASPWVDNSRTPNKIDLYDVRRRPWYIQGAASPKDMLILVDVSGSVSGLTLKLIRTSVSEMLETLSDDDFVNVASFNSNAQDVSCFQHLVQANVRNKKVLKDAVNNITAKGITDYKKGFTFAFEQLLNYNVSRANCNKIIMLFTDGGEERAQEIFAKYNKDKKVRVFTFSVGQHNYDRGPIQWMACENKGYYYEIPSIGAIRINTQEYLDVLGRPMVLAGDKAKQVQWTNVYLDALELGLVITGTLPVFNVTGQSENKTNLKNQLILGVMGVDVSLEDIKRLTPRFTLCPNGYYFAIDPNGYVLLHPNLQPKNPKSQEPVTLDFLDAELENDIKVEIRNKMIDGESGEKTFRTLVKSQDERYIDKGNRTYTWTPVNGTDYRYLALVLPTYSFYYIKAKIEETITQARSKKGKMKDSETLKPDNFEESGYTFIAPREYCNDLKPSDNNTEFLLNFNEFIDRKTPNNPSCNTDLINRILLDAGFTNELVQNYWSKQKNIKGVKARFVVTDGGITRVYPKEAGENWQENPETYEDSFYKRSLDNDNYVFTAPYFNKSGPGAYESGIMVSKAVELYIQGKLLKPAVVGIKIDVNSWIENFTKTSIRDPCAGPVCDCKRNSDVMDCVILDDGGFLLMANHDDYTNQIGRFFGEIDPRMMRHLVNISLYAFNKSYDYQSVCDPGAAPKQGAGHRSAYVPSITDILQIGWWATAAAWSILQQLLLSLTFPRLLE
T1 sequence (P54290 945-1091 partner limits assumed, other chains not shown): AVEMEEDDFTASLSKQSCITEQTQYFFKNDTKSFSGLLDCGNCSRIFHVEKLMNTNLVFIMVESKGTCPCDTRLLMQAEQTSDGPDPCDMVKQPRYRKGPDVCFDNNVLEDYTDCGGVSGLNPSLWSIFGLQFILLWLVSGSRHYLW
From the text: FIG. 3A illustrates an approach for N-type channels without Gβγ coexpression. Exemplar currents activated quickly and were barely facilitated by strong prepulse depolarization (FIG. 3A, left). The slight residual prepulse facilitation reflects basal endogenous Gβγ activation. To estimate open probability, two intermediary parameters were specified. First, to gauge the number of channels in a cell (Nchannel), the channel gating current at the reversal potential for ionic current were isolated (FIG. 3A, middle left) (Jones et al., 1999). The area under this current yields the maximal gating charge Qmax, where Qmax=Nchannel×qmax, and qmax is the maximal gating charge per channel. Second, Gmax for a given cell, the maximal ionic current conductance determined as the slope of the peak current-voltage relation at depolarized potentials were determined (FIG. 3A, middle right, line). Here and throughout, current-voltage relations were determined after a 100 mV prepulse, which transiently relieves all G protein inhibition (Colecraft et al., 2000), thus eliminating these inhibitory effects in the estimate of Gmax. Accordingly, Gmax=Nchannel×Po,max×g, where Po,max is the maximal channel open probability at saturating de-polarization, and g is the conductance of a single open channel. In combination, then, a plot of Gmax versus Qmax for multiple cells ([…]) would describe a linear relation with slope equal to Po,max×g/qmax. Because g and qmax are unchanged by G protein modulation (Colecraft et al., 2001; Jones et al., 1997; Patil et al., 1996), this slope (G/Q=0.44±0.03 nS/fC) is proportional to Po,max . . . FIG. 3B documents the supporting results for N-type channels coexpressed with Gβγ. Gmax determined after prepulse de-polarization, when plotted against Qmax, specifies an identical slope to that without Gβγ (FIG. 3B, right, G/Q=0.43±0.04 nS/fC). […] Free NTB peptide with α1B channels. Initially, an NTB-CFP peptide was employed to visually confirm expression was coexpressed. […] By contrast, coexpressing channels with NTB-CFP and Gβγ produced remarkable effects (FIG. 3D). […] More telling were small ionic current amplitudes despite gating current magnitudes on par with controls (FIG. 3D, middle panels). Consequently, there was a significant ^w6-fold depression of the Gmax-Qmax plot (FIG. 3D, right). If NTB-CFP were simply chelating Gβγ (FIG. 2C), the G/Q slope would be unchanged from control. Instead, the suppression of G/Q indicates constitutive inhibition of channel opening.
Cells were transiently transfected and cultured in 10 cm plates (Brody et al., 1997). For 2+Ca^2+ channels, 8 μg was used of each of cDNAs of the desired a1, rat brain β2a (Perez-Reyes et al., 1992), and rat brain a^28 (Tomlinson et al., 1993) subunits; along with 2 μg T-antigen cDNA. N-type α1B, human origin (NM000718); L-type α1C, rabbit (Wei et al., 1991) (X15539). Gβγ coexpressed with 4 μg each of Gβ1 (Sugimoto et al., 1985) and Gγ2 (Gautam et al., 1990). For coexpression of N-terminal peptides, channel subunit cDNA reduced to 6 μg, while adding 14 μg peptide cDNA. For receptor experiments, 0.5 μg cDNA for m2R (below) applied with other cDNAs.
Whole-cell current records were made with Axopatch 200B (Axon Instruments, Calif.), 1-3 days posttransfection. Pipets, 1.5-3 MΩ before 60-75% series resistance compensation. Internal solution: 135 mM CsMeSO4, 5 mM CsCl, 10 mM EGTA, 10 mM HEPES, 1 mM MgCl2, and 4 mM MgATP. External solution: 150 mM TEAMeSO4, 10 mM HEPES, 2 mM CaCl2, and 1 mM MgCl2. During constitutive inhibition (or as noted for some chimeras), 20 mM BaCl2 was substituted for 2 mM CaCl2, and the resulting solution was diluted 1.08×. To compare across external solutions, a conversion factor of 3.18 was used. Currents and conductances with 20 mM Ba^2+ were thus scaled×1/3.18 to facilitate uniform comparison of values, as if all data had been collected with 2 mM Ca^2+. When applied, conversion is denoted by asterisk (*). […]

[2] = molecular target: T2, I-II loop of α1B (I-IIB) (Homo sapiens, UniProt Q00975); experiment: Yeast two-hybrid assay, NT peptides versus I-IIB; assay type: binding; settings: NT segment in pGBKT7, I-IIB in pGADT7
T2 construct: I-IIB(357-482)-pGADT7 & lam-pGBKT7; expressed in transfected cells; host or cells: AH109 yeast
T2 sequence (Q00975 357-482): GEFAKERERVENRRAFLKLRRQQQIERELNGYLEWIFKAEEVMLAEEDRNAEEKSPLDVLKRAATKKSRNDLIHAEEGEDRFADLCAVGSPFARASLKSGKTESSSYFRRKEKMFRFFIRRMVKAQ
From the text: (§1) For yeast two-hybrid assays, a PCR fragment encoding one partner was fused, in-frame, with the GAL4 DNA binding domain (BD) in pGBKT7 (Clontech, Palo Alto, Calif.). The other element was fused, in-frame, with the GAL4 activation domain (AD) in pGADT7. For specific residues, see Supplemental Data (section 2). For electrophysiology, NT peptides lacking fluorophore tag were PCR amplified and cloned in pcDNA3. NTB peptide residues, 1-95; NTC residues, […]. Throughout, all segments subject to PCR or QuikChange were verified in their entirety by sequencing.
(§2) The Matchmaker GAL4 Two-Hybrid System 3 was used (Clontech, Palo Alto, Calif.). AH109 yeast were transformed with pGBKT7/pGADT7-based constructs (Yeastmaker Yeast Transformation System 2 kit, Clontech). After 5-8 days, growth on -leucine/-trytophan plates confirmed transformation of both plasmids. If partners interact, GAL4 BD/AD would complex, activating reporter genes (HIS3, ADE2, lacZ, and MEL1), for which assays are detailed in the Supplemental Data (section 2.1).
(§3) As a ‘medium’ stringency assay, expression of the lacZ gene was tested for encoding β-galactosidase, performing a filter lift with application of blue chromogenic substrate (Clontech-Laboratories, 1999). After the filter lift, original plates were re-grown for 2-3 days at 30° C. Filter paper was then used to replicate colonies onto a high stringency plate (-adenine/-histidine/-leucine/-trytophan). These plates were then incubated at 30° C. for 5-8 days. Survival on high stringency plates indicates production of both adenine and histidine, from transcription of the ADE2 and HIS3 genes, respectively. The percentage of colonies that turned blue in the filter lift assay, along with the percentage of colonies that survived on high stringency plates, was recorded for each pairing. Experiments were repeated at least three times. False positives were controlled for by testing each segment in pGBKT7 against empty pGADT7, and each segment in pGADT7 against lamin C in pGBKT7 (lamin C interacts with few proteins). Average sum of these backgrounds was subtracted from B to produce the net interaction parameter ΔB (FIG. 2).

[3] = molecular target: T3, I-IIB-YFP (Homo sapiens, UniProt Q00975); experiment: Live-cell FRET two-hybrid assay versus I-IIB-YFP in HEK293 cells; assay type: binding; settings: for Kd,EFF / affinity for I-IIB (FRET), in words: relative dissociation constant, HEK293 cells; for FRmax: 1:1 binding-model fit, CFP-tagged peptide versus I-IIB-YFP
T3 construct: I-IIB residues, 357-482; expressed in transfected cells; host or cells: HEK293
T3 sequence (Q00975 357-482): as above
From the text: To confirm preferential interaction of NTB with I-IIB a live-cell FRET two-hybrid assay was used (Erickson et al., 2003), in which NTB, NTC, I-IIB, and I-IIC were fused to either CFP or YFP, and the resulting fusion constructs expressed pair-wise in mammalian HEK293 cells. Given a Forster distance of ˜50 Å for the CFP/YFP pair (Patterson et al., 2000), the presence of FRET in individual cells would give a strong indication of interpeptide binding in the mammalian intracellular milieu. This indication is generally characterized by a low false-positive rate (Erickson et al., 2003), so that FRET assays provide a useful complement to yeast two-hybrid assays (Allen et al., 1995). […] SCFP (the signal derived from an image obtained with the CFP filter cube) is selective for CFP fluorescence and thereby gives an optical measure of NTB-CFP expression. Analogously, the SYFP signal, derived from preferential excitation and detection of YFP, estimates I-IIB-YFP levels. Finally, the SFRET signal reflects I-IIB-YFP fluorescence stimulated by FRET transfer from NTB-CFP, as well as secondary cross-talk signals. These three signals can be incorporated within a three-cube FRET algorithm to determine the strength of FRET interaction (“FRET ratio,” FR), independently of cross-talk (Erickson et al., 2001). FR adopts a value of unity in the absence of FRET and grows linearly with increasing FRET efficiency (Erickson et al., 2003). FR values for many individual cells are plotted as circles in FIG. 2Eb, with numerous determinations clearly greater than unity. Alternatively, FR values specified by a YFP-photobleaching methodology were also elevated above unity (triangles) (Bastiaens and Jovin, 1996). […] Consistent with yeast two-hybrid assays, then, FRET assays confirmed a selective propensity for NTB and I-IIB segments to associate.
Human m2 muscarinic acetylcholine receptor (AF498916) was engineered to reduce desensitization (Pals-Rylaarsdam and Hosey, 1997). QuikChange (Stratagene, La Jolla, Calif.) introduced cluster mutations, yielding m2R: residues 286-290 (STSVS/AAAVA), residues 307-311 (TVSTS/AVAAA). For FRET assays, base templates were ECFP/EYFP-tagged calmodulin constructs in pcDNA3 (Invitrogen, Carlsbad, Calif.), as described (Erickson et al., 2001). PCR-amplified channel segments or G proteins were substituted for calmodulin via upstream EcoRI and downstream NheI sites, creating in-frame fusions with fluorophore (ECFP/EYFP C-terminal to test molecules). NTC residues, 1-53; I-IIB residues, 357-482; and I-IIC residues, 436-554.
Experiments were performed mostly as previously described (Erickson et al., 2001; Erickson et al., 2003). Briefly, the FRET Ratio (FR) is the fractional increase in YFP emission due to FRET. […] For donor-dequenching analysis, EEFF is calculated as EEFF=^1−CFPpre/CFPpost, where CFPpre and CFPpost are the CFP emissions before/after 3 min YFP photobleaching. FR is determined by FR=(EEFF/[EYFP/ECFP])+1, where EYFP/ECFP is ratio of YFP and CFP molar extinction coefficients through 440 nm excitation bandpass of FRET cube (0.0574). For binding model analysis, Kd,EFF is the effective dissociation constant, related to actual Kd via filter/microscope optical characteristics. […]
Experiments were performed as described previously for the most part (Erickson et al., 2001; Erickson et al., 2003). Specifically, for quantitative analysis, all fluorescence from single cells were isolated through a pinhole in the image plane, and detected by photo-multiplier tube. In all three-cube FRET experiments, CFP levels were below a threshold where spurious, concentration-dependent FRET became significant (Stratton et al., 2004). Similarly, for donor-dequenching experiments, YFP levels were below an analogous threshold. […]

[4] = molecular target: T4, Gβ1 (Bos taurus, UniProt P62871); experiment: Yeast two-hybrid assay, channel fragments versus Gβ1; assay type: binding; settings: Gβ1 in pGADT7, channel fragment in pGBKT7
T4 construct: expressed in transfected cells; host or cells: AH109 yeast
T4 sequence (P62871 whole entry, the tested form may be a part): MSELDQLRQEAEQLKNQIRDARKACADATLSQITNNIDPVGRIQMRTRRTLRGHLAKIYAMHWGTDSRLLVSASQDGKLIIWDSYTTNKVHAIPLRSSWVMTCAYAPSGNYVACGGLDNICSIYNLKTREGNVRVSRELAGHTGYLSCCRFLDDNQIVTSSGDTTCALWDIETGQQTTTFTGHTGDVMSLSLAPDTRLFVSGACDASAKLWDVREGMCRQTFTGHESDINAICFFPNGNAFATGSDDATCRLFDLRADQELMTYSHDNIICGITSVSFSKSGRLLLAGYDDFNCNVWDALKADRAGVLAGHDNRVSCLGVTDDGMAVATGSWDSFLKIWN
From the text: as §1, §2
as §3, with “Average sum of these backgrounds was subtracted from B to produce the net interaction parameter ΔB (FIG. 2).” left out

Molecule: NTB (45-95): NTB subdomain, residues 45-95 (SEQ ID NO.: 2) (KQSIAQRARTMALYNPIPVKQNCFTVNRSLFVFSEDNVVRKYAKRITEWP; listed as Homo sapiens)
- Effect on G/Q slope (Gmax-Qmax relation), with Gβγ [1]: depressed Gmax-Qmax relations to the same extent as did full NTB
- Interaction with I-IIB (yeast two-hybrid, ΔB) [2]: Robust ΔB values

Molecule: NTB (1-44)—CFP: NTB (1-44) fused to CFP (MVRFGDELGGRYGGPGGGERARGGGAGGAGGPGPGGLQPGQRVL; also: fused to CFP)
- Kd,EFF / affinity for I-IIB (FRET), in words [3]: no detectable association

Molecule: NTB (56-95)—CFP: NTB (56-95) fused to CFP (MALYNPIPVKQNCFTVNRSLFVFSEDNVVRKYAKRITEWP; also: fused to CFP)
- FRmax [3]: 2.44
- Kd,EFF / affinity for I-IIB (FRET), in words [3]: affinity equivalent to that of full NTB

B1: NTB-CFP: NTB peptide fused to CFP (protein)
chain: MVRFGDELGGRYGGPGGGERARGGGAGGAGGPGPGGLQPGQRVLYKQSIAQRARTMALYNPIPVKQNCFTVNRSLFVFSEDNVVRKYAKRITEWP
modifications: left off: large carriers
- FRmax [3]: 3.66
- Kd,EFF / affinity for I-IIB (FRET), in words [3]: comparable to that for an apoCaM/IQ segment interaction
- Effect on G/Q slope and currents, without Gβγ ([1]; peptide coexpressed with channels, absent Gβγ): no differences from control

B2: NTB [1-55]: residues 1-55 of NTB (protein)
chain: MKLLSSIEQACDICRLKKLKCSKEKPKCAKCLKNNWECRYSPKTKRSPLTRAHLTEVESRLERLEQLFLLIFPREDLDMILKMDSLQDIKALLTGLFVQDNVNKDAVTDRLASVETDMPLTLRQHRISATSSSEESSNKGQRQLTVSMVRFGDELGGRYGGPGGGERARGGGAGGAGGPGPGGLQPGQRVLYKQSIAQRART
- Interaction with Gβ1 (yeast two-hybrid) [4]: interacted with Gβ1

B3: NTB (Δ45-55): NTB peptide lacking residues 45-55 (protein)
chain: MVRFGDELGGRYGGPGGGERARGGGAGGAGGPGPGGLQPGQRVLMALYNPIPVKQNCFTVNRSLFVFSEDNVVRKYAKRITEWP
modifications: left off: small tags and cut ends
- Effect on G/Q slope (Gmax-Qmax relation), with Gβγ [1]: inter-mediate inhibition
- Interaction with I-IIB (yeast two-hybrid, ΔB) [2]: partially attenuated association
